Laboratory results: patent US20230374072A1 (priority 2020, published 2023)

Test system: TNF expression in HUVEC cell culture

Gly-Asp-Cys-Pro-Pro-Trp-Cys-Gly-Ala-Arg-Cys-(XXX)-Cys [SEQ ID NO:1 scaffolding protein]
toxic activity (activity of the toxin): does not present any type of toxic activity
